# In PMC12333349, “Endogenous Aquaporin‑0 Lipid Binding in Ocular Lens Tissue via Native Mass Spectrometry” (Journal of the American Society for Mass Spectrometry, 2025):
# Biological target: the molecule itself
# Assay: native MS; crude bovine lens cortex or nucleus membrane preparation, solubilised in 1% OG, exchanged into 200 mM ammonium acetate, 2x CMC C8E4; static nanospray, Q Exactive UHMR; HCD at 200 V fragmented the tetramer mainly into monomers
protein,measurement,value
"Aquaporin-0 (natural protein, bovine, UniProt P06624 1-263, looked up, Aquaporin-0 (AQP0), bovine lens; the most abundant species is full-length AQP0, tetramer average mass 112,898 Da; Lower-abundance singly and doubly phosphorylated tetramers were also detected; Samples were in 200 mM ammonium acetate with 2x CMC C8E4 (residual OG possible); also called AQP0; crude AQP0; source: endogenous, bovine lens cortex and nucleus: crude urea-washed membrane pellets …) MWELRSASFWRAICAEFFASLFYVFFGLGASLRWAPGPLHVLQVALAFGLALATLVQAVGHISGAHVNPAVTFAFLVGSQMSLLRAICYMVAQLLGAVAGAAVLYSVTPPAVRGNLALNTLHPGVSVGQATIVEIFLTLQFVLCIFATYDERRNGRLGSVALAVGFSLTLGHLFGMYYTGAGMNPARSFAPAILTRNFTNHWVYWVGPVIGAGLGSLLYDFLLFPRLKSVSERLSILKGSRPSESNGQPEVTGEPVELKTQAL",stoichiometry N,4
